Reference: PMC4645341 (Journal of Virology, 2015)
Where no end group is shown, it is not given here.

What was measured:
[1] = target: MPER-TM1 (HIV-1 (strain not stated)); test: ELISA
4E10 WT Fab = test: SPR
[2] = target: Recombinant gp41 (r-gp41; HIV-1MN isolate) (HIV-1 isolate MN, UniProt P05877); test: ELISA
Chain of Recombinant gp41 (r-gp41; HIV-1MN isolate) (P05877 whole entry, looked up): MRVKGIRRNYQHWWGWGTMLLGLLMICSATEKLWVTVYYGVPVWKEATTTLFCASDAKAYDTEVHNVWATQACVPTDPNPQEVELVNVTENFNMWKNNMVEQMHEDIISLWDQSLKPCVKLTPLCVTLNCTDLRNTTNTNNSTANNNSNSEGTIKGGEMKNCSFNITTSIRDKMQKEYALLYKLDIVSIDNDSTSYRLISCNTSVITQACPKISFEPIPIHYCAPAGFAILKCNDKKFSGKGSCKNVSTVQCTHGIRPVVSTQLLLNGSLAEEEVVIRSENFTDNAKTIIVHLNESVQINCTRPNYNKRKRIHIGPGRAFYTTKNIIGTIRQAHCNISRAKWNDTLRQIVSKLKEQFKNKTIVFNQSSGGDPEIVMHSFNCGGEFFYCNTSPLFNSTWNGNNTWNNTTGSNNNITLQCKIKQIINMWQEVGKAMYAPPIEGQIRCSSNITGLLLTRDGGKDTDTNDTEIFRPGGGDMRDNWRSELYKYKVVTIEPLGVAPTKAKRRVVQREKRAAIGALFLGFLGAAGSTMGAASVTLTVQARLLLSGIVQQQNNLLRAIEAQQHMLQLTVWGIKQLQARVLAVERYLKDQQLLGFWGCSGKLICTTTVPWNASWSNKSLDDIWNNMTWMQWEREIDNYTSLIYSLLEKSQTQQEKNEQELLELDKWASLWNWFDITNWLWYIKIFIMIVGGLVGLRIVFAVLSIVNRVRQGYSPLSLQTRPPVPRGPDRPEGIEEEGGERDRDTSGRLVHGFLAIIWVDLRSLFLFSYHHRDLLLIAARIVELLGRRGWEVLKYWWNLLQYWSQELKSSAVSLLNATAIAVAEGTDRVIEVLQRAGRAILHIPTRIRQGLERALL

## 4E10 IgG1 MAb (antibody)
[1]
  EC50: 0.1 nM

## 4E10 WT Fab
[1]
  EC50: 1 nM

## NWFDITNWLWYIRRRR-NH2 [4E10ep variant (…-RRR)]
4E10 WT Fab
  Kd: 21 nM
  dH (van't Hoff): -11.5 kcal/mol
  koff: 0.0011 s⁻¹

B1: 4E10 WDWD Fab (Fab, V domains shown)
VH: VQLVQSGAEVKRPGSSVTVSCKASGGSFSTYALSWVRQAPGRGLEWMGGVIPLLTITNYAPRFQGRITITADRSTSTAYLELNSLRPEDTAVYYCAREGTTGDGDLGKPIGAFAHWGQGTLVTVSS
VL: EIVLTQSPGTQSLSPGERATLSCRASQSVGNNKLAWYQQRPGQAPRLLIYGASSRPSGVADRFSGSGSGTDFTLTISRLEPEDFAVYYCQQYGQSLSTFGQGTKVEVK
[2]
  binding result: binds
